In US11827699 (dated 2023):
Read-outs that look alike come from different tables or passages of the source.

How the values were obtained:
Experiment in all cases: SPR
[1] = molecular target: T1, human FcγRIIa R131 (human, UniProt P12318)
T1 chain: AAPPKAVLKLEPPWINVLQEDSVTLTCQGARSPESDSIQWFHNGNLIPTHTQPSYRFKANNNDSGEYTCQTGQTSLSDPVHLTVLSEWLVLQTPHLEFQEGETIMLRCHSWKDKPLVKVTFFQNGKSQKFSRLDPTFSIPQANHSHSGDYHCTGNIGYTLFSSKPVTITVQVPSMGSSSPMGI

[2] = molecular target: T2, human FcγRIa (human, UniProt P12314)
T2 chain: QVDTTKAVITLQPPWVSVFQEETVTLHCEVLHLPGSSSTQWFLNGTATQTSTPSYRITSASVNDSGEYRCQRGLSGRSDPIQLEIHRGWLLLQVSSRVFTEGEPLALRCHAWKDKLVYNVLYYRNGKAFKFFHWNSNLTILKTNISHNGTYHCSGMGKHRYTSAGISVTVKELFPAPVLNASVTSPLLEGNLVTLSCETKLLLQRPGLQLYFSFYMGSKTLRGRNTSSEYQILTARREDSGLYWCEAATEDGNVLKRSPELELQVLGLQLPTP

[3] = molecular target: T3, human FcγRIIb (human, UniProt P31994)
T3 chain: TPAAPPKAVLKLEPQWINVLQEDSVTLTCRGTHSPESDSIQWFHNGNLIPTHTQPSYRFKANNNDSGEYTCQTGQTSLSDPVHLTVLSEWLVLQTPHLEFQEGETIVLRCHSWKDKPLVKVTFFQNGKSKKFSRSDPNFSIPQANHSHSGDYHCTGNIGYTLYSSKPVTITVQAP

[4] = molecular target: T1, human FcγRIIa R131

B1: IL6R-BP469 (antibody)
chain 1: QVQLQESGPGLVKPSETLSLTCAVSGHSISHDHAWSWVRQPPGEGLEWIGFISYSGITNYNPSLQGRVTISRDNSKNTLYLQMNSLRAEDTAVYYCARSLARTTAMDYWGEGTLVTVSSASTKGPSVFPLAPSSKSTSGGTAALGCLVKDYFPEPVTVSWNSGALTSGVHTFPAVLQSSGLYSLSSVVTVPSSSLGTQTYICNVNHKPSNTKVDKKVEPKSCDKTHTCPPCPAPDLLGDDSVFLFPPKPKDTLMISRTPEVTCVVVDVSDEDGEVKFNWYVDGVEVHNAKTKPREEQDNSTYRVVSVLTVLHQDWLNGKEYKCKVSNKALPRPISKTISKAKGQPREPQVYTLPPSRDELTKNQVSLTCLVKGFYPSDIAVEWESNGQPENNYKTTPPVLDSDGSFFLYSKLTVDKSRWQQGNVFSCSVMHEALHNHYTQESLSLSP
chain 2: not shown
How did the Kd [1] turn out when B1 was run?
The Kd was 600 nM.

B2: IL6R-BP384 (antibody)
chain 1: QVQLQESGPGLVKPSETLSLTCAVSGHSISHDHAWSWVRQPPGEGLEWIGFISYSGITNYNPSLQGRVTISRDNSKNTLYLQMNSLRAEDTAVYYCARSLARTTAMDYWGEGTLVTVSSASTKGPSVFPLAPSSKSTSGGTAALGCLVKDYFPEPVTVSWNSGALTSGVHTFPAVLQSSGLYSLSSVVTVPSSSLGTQTYICNVNHKPSNTKVDKKVEPKSCDKTHTCPPCPAPDLLGDDSVFLFPPKPKDTLMISRTPEVTCVVVDVSDEDGEVKFNWYVDGVEVHNAKTKPREEQDNSTYRVVSVLTVLHQDWLNGKEYKCKVSNKALPRPIERTISKAKGQPREPQVYTLPPSRDELTKNQVSLTCLVKGFYPSDIAVEWESNGQPENNYKTTPPVLDSDGSFFLYSKLTVDKSRWQQGNVFSCSVMHEALHNHYTQESLSLSP
chain 2: not shown
For B2, which Kd [2] is on record?
Its Kd is 3 nM.

B3: IL6R-BP468 (antibody)
chain 1: QVQLQESGPGLVKPSETLSLTCAVSGHSISHDHAWSWVRQPPGEGLEWIGFISYSGITNYNPSLQGRVTISRDNSKNTLYLQMNSLRAEDTAVYYCARSLARTTAMDYWGEGTLVTVSSASTKGPSVFPLAPSSKSTSGGTAALGCLVKDYFPEPVTVSWNSGALTSGVHTFPAVLQSSGLYSLSSVVTVPSSSLGTQTYICNVNHKPSNTKVDKKVEPKSCDKTHTCPPCPAPDLLGDDSVFLFPPKPKDTLMISRTPEVTCVVVDVSDEDGEVKFNWYVDGVEVHNAKTKPREEQDNSTYRVVSVLTVLHQDWLNGKEYKCKVSNKALPRPIETTISKAKGQPREPQVYTLPPSRDELTKNQVSLTCLVKGFYPSDIAVEWESNGQPENNYKTTPPVLDSDGSFFLYSKLTVDKSRWQQGNVFSCSVMHEALHNHYTQESLSLSP
chain 2: not shown
For B3, which Kd [3] is on record?
The Kd was 40 nM.

B4: IL6R-BP223 (antibody)
chain 1: QVQLQESGPGLVKPSETLSLTCAVSGHSISHDHAWSWVRQPPGEGLEWIGFISYSGITNYNPSLQGRVTISRDNSKNTLYLQMNSLRAEDTAVYYCARSLARTTAMDYWGEGTLVTVSSASTKGPSVFPLAPSSKSTSGGTAALGCLVKDYFPEPVTVSWNSGALTSGVHTFPAVLQSSGLYSLSSVVTVPSSSLGTQTYICNVNHKPSNTKVDKKVEPKSCDKTHTCPPCPAPEYLGDDSVFLFPPKPKDTLMISRTPEVTCVVVDVSDEDGEVKFNWYVDGVEVHNAKTKPREEQYNSTYRVVSVLTVLHQDWLNGKEYKCKVSNAALPRPIEKTISKAKGQPREPQVYTLPPSRDELTKNQVSLTCLVKGFYPSDIAVEWESNGQPENNYKTTPPVLDSDGSFFLYSKLTVDKSRWQQGNVFSCSVMHEALHNHYTQESLSLSP
chain 2: not shown
How did the Kd [4] turn out when B4 was run?
The Kd was 600 nM.
